The Ki is a measure of affinity in units of concentration, obtained from inhibition or displacement. Lower therefore signals tighter binding.

Non-standard residues stand in square brackets, D forms with d. No end group written: not given here. *: point of attachment. NH(3,5-(CF3)2-benzyl) = FC(F)(F)c1cc(CN*)cc(C(F)(F)F)c1; βGlc = OC[C@H]1O[C@@H](*)[C@H](O)[C@@H](O)[C@@H]1O; Nle = CCCC[C@H](N)C(=O)O

From PMC3521585 (Journal of medicinal chemistry, 2009) come the findings set out here.

In test [1] the target is T1, rat μ-opioid receptor (rat, UniProt P33535 1-398). Put plainly: radioligand binding.
T1 sequence (P33535 whole entry): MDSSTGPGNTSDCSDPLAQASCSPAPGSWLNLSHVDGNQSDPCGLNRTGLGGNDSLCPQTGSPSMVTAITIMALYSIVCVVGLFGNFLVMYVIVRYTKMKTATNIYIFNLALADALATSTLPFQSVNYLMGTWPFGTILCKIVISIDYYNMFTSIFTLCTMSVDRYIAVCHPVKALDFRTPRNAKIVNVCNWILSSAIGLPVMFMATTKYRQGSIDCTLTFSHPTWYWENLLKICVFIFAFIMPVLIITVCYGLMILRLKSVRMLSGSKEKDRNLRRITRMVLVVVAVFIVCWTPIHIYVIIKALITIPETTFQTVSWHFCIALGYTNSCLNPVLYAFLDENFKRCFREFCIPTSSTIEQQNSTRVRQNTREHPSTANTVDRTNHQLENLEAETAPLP
Test [2] deals with T2, human δ-opioid receptor (human, UniProt P41143 1-372). Put plainly: cell-based or functional assay.
T2 sequence (P41143 whole entry, stated change not applied): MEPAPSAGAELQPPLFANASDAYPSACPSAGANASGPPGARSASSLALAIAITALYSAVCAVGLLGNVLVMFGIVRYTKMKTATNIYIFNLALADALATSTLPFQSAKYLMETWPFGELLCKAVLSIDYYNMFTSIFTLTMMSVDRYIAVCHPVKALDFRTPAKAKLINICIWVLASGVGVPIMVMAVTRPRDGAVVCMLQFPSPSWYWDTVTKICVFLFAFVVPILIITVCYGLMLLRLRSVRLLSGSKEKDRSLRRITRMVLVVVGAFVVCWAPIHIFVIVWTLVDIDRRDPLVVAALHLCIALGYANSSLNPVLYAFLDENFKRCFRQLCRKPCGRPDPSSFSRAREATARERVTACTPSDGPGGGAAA
Test [3] deals with T1, rat μ-opioid receptor. Nature of the test: cell-based or functional assay.
Test [4] has as its target human NK1 receptor (human, UniProt P25103 1-407). Nature of the test: radioligand binding.
The target in test [5] is rat NK1 receptor (rat, UniProt P14600 1-407). Put plainly: radioligand binding.
rat NK1 receptor, sequence (P14600 whole entry): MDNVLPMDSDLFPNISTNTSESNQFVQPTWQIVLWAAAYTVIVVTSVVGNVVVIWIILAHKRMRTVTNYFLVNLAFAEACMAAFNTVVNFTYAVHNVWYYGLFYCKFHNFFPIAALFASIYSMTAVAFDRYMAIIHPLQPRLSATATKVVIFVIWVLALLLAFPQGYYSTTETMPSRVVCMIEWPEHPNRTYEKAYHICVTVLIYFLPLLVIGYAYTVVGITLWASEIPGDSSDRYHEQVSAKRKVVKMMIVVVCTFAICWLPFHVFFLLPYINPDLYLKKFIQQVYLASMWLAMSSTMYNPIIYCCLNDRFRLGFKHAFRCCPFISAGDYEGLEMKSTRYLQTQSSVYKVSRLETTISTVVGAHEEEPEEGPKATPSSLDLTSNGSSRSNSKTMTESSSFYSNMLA
Test [6] deals with T2, human δ-opioid receptor. Nature of the test: radioligand binding.

human NK1 receptor, sequence (P25103 whole entry): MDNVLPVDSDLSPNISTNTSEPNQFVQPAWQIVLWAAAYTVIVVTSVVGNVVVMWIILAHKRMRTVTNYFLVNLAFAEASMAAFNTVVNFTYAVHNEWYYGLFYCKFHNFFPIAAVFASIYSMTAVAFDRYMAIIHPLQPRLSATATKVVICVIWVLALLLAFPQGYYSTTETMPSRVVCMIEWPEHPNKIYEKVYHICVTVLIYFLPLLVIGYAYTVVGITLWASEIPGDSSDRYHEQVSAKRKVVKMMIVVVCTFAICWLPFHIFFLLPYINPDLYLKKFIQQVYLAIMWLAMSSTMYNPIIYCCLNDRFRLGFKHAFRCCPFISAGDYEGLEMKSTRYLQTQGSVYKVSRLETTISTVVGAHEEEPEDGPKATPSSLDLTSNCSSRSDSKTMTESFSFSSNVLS

In test [1], Y[dA]GF[Nle]S(βGlc)LW-{NH(3,5-(CF3)2-benzyl)} [Tyr-D-Ala-Gly-Phe-Nle-Ser(Glc)-Leu-Trp-NH-3’,5’-Bzl(CF3)2] showed a Ki of 3400 nM and a LogIC50 of -5.15. The “[35S]GTPγS binding, HN9.10 membranes expressing hDOR: Emax” value in test [2] came out at 130%. Also, in test [3], the “[35S]GTPγS binding, HN9.10 membranes expressing rMOR: EC50” value was found to be 380 nM; the “[35S]GTPγS binding, HN9.10 membranes expressing rMOR: Emax” value was determined as 81%; the “[35S]GTPγS binding, HN9.10 membranes expressing rMOR: LogEC50” value is -6.42. In test [4], this molecule showed a Ki of 1800 pM and a LogIC50 of -8.38.

On to Y[dA]GF[Nle]PLS(βGlc)W-{NH(3,5-(CF3)2-benzyl)} [Tyr-D-Ala-Gly-Phe-Nle-Pro-Leu-Ser(Glc)-Trp-NH-3’,5’-Bzl(CF3)2], for which the LogIC50 in test [5] was -7.02. In addition, the LogIC50 in test [1] is -7.22. Further, in test [2], the “[35S]GTPγS binding, HN9.10 membranes expressing hDOR: Emax” value amounted to 49% and the “[35S]GTPγS binding, HN9.10 membranes expressing hDOR: LogEC50” value is -7.56. In addition, in test [3], the “[35S]GTPγS binding, HN9.10 membranes expressing rMOR: Emax” value turned out to be 50% and the “[35S]GTPγS binding, HN9.10 membranes expressing rMOR: LogEC50” value is -8.21. The LogIC50 in test [4] is -9.93.

Take Y[dA]GFS(βGlc)PLW-{NH(3,5-(CF3)2-benzyl)} [Tyr-D-Ala-Gly-Phe-Ser(Glc)-Pro-Leu-Trp-NH-3’,5’-Bzl(CF3)2]: the Ki in test [5] is 1.5 nM; in test [1], 260 nM; in test [4], 1.1 pM; in test [6], 59 nM. Moreover, the LogIC50 was -8.35 in test [5], -6.12 in test [1], -12.2 in test [4] and -6.91 in test [6]. Moreover, in test [2], the “[35S]GTPγS binding, HN9.10 membranes expressing hDOR: EC50” value was determined as 52 nM. For the same molecule, the “[35S]GTPγS binding, HN9.10 membranes expressing hDOR: LogEC50” value in test [2] was -7.29. The “[35S]GTPγS binding, HN9.10 membranes expressing rMOR: EC50” value in test [3] was 180 nM. The “[35S]GTPγS binding, HN9.10 membranes expressing rMOR: LogEC50” value in test [3] was -6.76.

B1: Tyr-D-Ala-Gly-Phe-Nle-Pro-Leu-Trp-NH-3’,5’-Bzl(CF3)2 (peptide)
chain: YAGFXPLW
modifications: D-Ala at 2; norleucine (Nle) at 5 (written X); C-terminal 3’,5’-bis(trifluoromethyl)benzyl amide (Trp-NH-3’,5’-Bzl(CF3)2)
Consider B1, for which, in test [2], the “[35S]GTPγS binding, HN9.10 membranes expressing hDOR: EC50” value is 5 nM; the “[35S]GTPγS binding, HN9.10 membranes expressing hDOR: Emax” value is 120%; the “[35S]GTPγS binding, HN9.10 membranes expressing hDOR: LogEC50” value is -8.3. In test [4], this molecule showed a Ki of 2.8 pM and a LogIC50 of -11.6. Also, in test [6], the Ki stood at 1 nM and the LogIC50 is -8.67.

In test [5], Y[dA]GF[Nle]PS(βGlc)W-{NH(3,5-(CF3)2-benzyl)} [Tyr-D-Ala-Gly-Phe-Nle-Pro-Ser(Glc)-Trp-NH-3’,5’-Bzl(CF3)2] yielded a Ki of 14 nM and a LogIC50 of -7.3. Further, in test [1], the inhibition constant (Ki) came out at 8 nM and the LogIC50 was -7.77. Besides, in test [2], the “[35S]GTPγS binding, HN9.10 membranes expressing hDOR: EC50” value came out at 7.9 nM; the “[35S]GTPγS binding, HN9.10 membranes expressing hDOR: Emax” value is 64%; the “[35S]GTPγS binding, HN9.10 membranes expressing hDOR: LogEC50” value was -8.1. Also, in test [3], the “[35S]GTPγS binding, HN9.10 membranes expressing rMOR: EC50” value was 18 nM; the “[35S]GTPγS binding, HN9.10 membranes expressing rMOR: Emax” value came to 38%; the “[35S]GTPγS binding, HN9.10 membranes expressing rMOR: LogEC50” value is -7.75. In test [6], the LogIC50 was -8.1.
